Laboratory results: patent US20190022241A1 (AbbVie / Abbott, published 2019)

T1: extracellular domain of cynomolgus SEZ6 on yeast (cynomolgus, UniProt Q53EL9 23-925 (human entry))
T1 construct: yeast display; the whole entry is named; also called cSEZ6; cynomolgus SEZ6 ECD
T1 chain: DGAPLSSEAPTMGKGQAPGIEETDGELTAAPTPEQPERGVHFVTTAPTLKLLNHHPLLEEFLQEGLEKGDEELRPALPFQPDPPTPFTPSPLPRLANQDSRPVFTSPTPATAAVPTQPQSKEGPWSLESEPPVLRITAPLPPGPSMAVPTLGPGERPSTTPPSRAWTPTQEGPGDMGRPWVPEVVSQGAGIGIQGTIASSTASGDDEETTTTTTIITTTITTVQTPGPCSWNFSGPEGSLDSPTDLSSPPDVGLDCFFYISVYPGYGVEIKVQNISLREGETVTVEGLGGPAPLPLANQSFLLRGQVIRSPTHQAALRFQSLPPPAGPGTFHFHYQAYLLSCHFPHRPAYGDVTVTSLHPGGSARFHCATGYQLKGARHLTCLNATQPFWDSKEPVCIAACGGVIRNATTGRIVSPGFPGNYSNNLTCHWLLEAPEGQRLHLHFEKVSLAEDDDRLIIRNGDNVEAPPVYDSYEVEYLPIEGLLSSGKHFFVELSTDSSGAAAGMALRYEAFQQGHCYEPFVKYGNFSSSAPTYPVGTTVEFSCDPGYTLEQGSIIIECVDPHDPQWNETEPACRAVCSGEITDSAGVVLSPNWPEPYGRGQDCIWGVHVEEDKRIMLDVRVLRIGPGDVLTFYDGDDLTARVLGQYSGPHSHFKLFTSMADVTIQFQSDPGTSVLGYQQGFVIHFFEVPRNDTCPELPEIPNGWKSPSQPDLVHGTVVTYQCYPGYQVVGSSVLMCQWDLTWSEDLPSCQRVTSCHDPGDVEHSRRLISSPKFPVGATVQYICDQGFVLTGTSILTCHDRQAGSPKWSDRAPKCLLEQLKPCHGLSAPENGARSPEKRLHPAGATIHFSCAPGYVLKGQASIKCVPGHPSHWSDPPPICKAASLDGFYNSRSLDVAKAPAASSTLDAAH

T2: rat SEZ6 on RIN-m5F cells (rat, UniProt Q7TSK2 20-991 (mouse entry))
T2 construct: endogenous on RIN-m5F cells; also called rSEZ6
T2 chain: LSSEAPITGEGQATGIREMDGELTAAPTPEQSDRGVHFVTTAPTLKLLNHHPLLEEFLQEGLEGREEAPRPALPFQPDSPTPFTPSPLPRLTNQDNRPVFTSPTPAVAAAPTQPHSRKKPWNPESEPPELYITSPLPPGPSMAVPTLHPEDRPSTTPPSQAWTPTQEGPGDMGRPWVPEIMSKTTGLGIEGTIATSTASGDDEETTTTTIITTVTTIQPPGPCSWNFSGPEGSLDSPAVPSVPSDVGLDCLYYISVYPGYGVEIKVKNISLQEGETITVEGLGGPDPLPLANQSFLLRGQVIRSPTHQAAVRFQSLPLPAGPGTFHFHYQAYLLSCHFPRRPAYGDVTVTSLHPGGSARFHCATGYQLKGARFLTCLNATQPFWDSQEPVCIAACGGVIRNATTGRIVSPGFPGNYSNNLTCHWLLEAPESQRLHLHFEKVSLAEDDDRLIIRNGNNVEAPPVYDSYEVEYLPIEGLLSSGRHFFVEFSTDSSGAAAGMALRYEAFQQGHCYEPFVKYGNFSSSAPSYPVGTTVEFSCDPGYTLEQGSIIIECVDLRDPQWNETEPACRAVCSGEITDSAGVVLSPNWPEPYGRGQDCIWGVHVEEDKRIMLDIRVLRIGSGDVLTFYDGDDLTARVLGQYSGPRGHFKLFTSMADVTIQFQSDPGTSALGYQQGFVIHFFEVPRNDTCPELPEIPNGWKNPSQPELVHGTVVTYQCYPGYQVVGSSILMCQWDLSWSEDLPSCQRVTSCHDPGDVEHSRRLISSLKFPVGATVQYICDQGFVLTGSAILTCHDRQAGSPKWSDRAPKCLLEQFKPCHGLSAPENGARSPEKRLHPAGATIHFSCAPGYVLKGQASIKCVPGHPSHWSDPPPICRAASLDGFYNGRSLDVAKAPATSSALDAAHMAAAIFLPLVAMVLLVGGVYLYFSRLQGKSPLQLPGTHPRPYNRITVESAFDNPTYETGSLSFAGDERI

T3: human SEZ6L ECD-His (human, UniProt Q9BYH1 29-955)
T3 construct: whole entry named
T3 sequence: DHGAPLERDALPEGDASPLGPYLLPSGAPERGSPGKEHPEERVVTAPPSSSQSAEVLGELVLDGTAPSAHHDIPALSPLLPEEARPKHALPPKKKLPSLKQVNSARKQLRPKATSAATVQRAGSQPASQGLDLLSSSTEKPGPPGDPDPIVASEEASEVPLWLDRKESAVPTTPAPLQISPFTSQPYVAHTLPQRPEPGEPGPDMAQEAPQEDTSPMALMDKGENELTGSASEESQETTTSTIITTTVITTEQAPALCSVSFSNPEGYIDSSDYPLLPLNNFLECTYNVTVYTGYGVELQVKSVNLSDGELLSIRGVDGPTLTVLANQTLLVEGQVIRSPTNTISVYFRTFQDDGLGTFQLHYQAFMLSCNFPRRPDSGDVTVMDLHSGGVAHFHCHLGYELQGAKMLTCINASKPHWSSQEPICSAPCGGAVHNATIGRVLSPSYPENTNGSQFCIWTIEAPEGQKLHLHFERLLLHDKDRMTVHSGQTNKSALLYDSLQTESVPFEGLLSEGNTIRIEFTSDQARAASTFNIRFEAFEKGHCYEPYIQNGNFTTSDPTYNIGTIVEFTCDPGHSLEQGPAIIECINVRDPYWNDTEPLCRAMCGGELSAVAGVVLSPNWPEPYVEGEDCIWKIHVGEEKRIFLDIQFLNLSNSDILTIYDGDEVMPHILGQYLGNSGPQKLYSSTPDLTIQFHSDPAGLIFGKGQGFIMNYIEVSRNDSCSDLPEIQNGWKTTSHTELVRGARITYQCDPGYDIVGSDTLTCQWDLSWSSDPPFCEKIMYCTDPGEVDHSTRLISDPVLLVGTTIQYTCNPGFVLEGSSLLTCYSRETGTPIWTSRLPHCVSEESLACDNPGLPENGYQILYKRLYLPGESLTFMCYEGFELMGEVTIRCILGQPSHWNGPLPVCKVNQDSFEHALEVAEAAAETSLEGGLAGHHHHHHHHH

T4: rSEZ6-ECD-His (rat, UniProt Q7TSK2 20-922 (mouse entry))
T4 construct: the whole entry is named; also called rat recombinant SEZ6-His; rat SEZ6 ECD
T4 chain: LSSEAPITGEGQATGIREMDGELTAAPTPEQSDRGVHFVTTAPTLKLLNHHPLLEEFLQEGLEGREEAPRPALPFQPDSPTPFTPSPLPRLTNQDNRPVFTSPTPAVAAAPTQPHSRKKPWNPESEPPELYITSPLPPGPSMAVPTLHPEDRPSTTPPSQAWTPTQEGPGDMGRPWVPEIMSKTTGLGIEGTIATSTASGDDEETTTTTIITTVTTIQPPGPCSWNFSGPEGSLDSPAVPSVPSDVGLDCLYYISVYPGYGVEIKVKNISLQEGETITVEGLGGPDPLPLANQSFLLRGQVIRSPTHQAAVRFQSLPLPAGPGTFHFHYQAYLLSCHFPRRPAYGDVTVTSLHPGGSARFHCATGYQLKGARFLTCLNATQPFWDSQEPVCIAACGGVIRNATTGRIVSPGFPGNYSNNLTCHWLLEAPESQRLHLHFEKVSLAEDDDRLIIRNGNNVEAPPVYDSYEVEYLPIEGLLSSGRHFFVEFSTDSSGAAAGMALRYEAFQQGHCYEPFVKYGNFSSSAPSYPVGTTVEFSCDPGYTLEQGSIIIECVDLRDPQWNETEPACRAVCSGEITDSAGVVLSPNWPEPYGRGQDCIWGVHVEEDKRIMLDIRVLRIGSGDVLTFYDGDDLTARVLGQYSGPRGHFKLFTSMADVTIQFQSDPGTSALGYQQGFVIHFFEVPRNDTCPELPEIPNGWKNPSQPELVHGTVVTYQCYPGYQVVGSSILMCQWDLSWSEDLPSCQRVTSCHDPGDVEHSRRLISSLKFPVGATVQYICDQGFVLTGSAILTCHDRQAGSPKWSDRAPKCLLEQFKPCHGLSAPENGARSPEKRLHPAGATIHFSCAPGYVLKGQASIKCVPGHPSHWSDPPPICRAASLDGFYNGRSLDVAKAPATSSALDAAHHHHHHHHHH

T5: SEZ6 CUB Domain 1 (aa 397-508) on yeast (human, UniProt Q53EL9 416-527)
T5 construct: yeast display
T5 sequence: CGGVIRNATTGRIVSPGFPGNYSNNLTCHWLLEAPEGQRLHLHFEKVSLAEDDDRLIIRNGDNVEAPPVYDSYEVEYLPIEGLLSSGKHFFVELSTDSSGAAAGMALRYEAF


Assays:
[1] = target: T1, extracellular domain of cynomolgus SEZ6 …; assay: flow cytometry on yeast displaying the extracellular domain of cynomolgus SEZ6
[2] = target: T2, rat SEZ6 on RIN-m5F cells; assay: flow cytometry on RIN-m5F cells expressing rat SEZ6, verified by BLI or SPR on rat SEZ6-His
human SEZ6L2 ECD-His = target: T6, human SEZ6L2 ECD-His (human, UniProt Q6UXD5 28-843); assay: ELISA on plates coated with SEZ6L2 protein
T6 construct: whole entry named

human SEZ6L ECD-His = target: T3, human SEZ6L ECD-His; assay: ELISA on plates coated with SEZ6L protein
[3] = target: T7, mouse SEZ6 on Neuro2a cells (mouse, UniProt Q7TSK2 20-991); assay: flow cytometry on Neuro2a cells expressing mouse SEZ6
T7 construct: endogenous on Neuro2a cells; also called murine SEZ6; mSEZ6

[4] = target: T8, SEZ6 Sushi Domain 1 (amino acids 336-395) on yeast (human, UniProt Q53EL9 355-414); assay: yeast display, flow cytometry;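 note: antibody binding to individual SEZ6 domains displayed on yeast, measured by flow cytometry, antibody at 50 nM purified or hybridoma supernatant diluted 1:2, 90 min on ice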
T8 construct: yeast display

hSEZ6-ECD-His = target: T9, hSEZ6-ECD-His (human, UniProt Q53EL9 20-925); assay: bio-layer interferometry (ForteBio RED) or surface plasmon resonance (Biacore 2000) on human SEZ6-His; the table does not say which; column Hu Affinity (Kd, nM)
T9 construct: the whole entry is named; also called recombinant SEZ6-His; human recombinant SEZ6-His

rSEZ6-ECD-His = target: T4, rSEZ6-ECD-His; assay: bio-layer interferometry (ForteBio RED) or surface plasmon resonance (Biacore 2000) on rat SEZ6-His; the table does not say which; column Rat XR (Kd, nM)
[5] = target: T10, SEZ6 Sushi Domain 3 (amino acids 690-748) on yeast (human, UniProt Q53EL9 709-767); assay: yeast display, flow cytometry;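 note: antibody binding to individual SEZ6 domains displayed on yeast, measured by flow cytometry, antibody at 50 nM purified or hybridoma supernatant diluted 1:2, 90 min on ice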
T10 construct: yeast display

[6] = target: T5, SEZ6 CUB Domain 1 (aa 397-508) on yeast; assay: yeast display, flow cytometry;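 note: antibody binding to individual SEZ6 domains displayed on yeast, measured by flow cytometry, antibody at 50 nM purified or hybridoma supernatant diluted 1:2, 90 min on ice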

T6 sequence (Q6UXD5 other isoform, or with tags, fused parts or gaps): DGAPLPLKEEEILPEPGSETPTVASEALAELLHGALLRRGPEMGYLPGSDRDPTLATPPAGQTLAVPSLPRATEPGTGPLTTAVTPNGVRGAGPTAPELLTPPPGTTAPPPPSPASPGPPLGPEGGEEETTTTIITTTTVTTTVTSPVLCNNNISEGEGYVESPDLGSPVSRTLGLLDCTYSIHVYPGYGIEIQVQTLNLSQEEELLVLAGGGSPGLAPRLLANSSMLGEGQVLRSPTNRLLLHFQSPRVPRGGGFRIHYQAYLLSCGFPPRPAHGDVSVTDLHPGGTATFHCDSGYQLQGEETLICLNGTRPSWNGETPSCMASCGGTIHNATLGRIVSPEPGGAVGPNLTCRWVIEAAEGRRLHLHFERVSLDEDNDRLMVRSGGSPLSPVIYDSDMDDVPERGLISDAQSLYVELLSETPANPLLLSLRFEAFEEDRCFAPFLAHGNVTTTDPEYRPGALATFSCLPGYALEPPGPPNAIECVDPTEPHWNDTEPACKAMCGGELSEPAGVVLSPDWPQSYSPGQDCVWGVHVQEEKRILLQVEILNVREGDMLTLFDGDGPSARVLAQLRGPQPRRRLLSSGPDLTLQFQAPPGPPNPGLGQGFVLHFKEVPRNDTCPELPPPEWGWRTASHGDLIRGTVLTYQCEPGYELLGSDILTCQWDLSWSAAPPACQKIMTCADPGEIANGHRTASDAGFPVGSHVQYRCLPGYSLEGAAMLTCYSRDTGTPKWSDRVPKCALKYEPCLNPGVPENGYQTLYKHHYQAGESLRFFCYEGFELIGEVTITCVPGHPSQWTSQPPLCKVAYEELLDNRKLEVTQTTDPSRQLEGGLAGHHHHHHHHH

| binding result [1] | binding result (human SEZ6L2 ECD-His) | binding result (human SEZ6L ECD-His) | binding result [6] | Binder | other results |
| --- | --- | --- | --- | --- | --- |
| no binding (tested: 5 µg/mL) | no binding (tested: 1 µg/mL) | no binding (tested: 1 µg/mL) | – | SC17.46 (antibody, V domains shown, murine mAb) VH: QVQLQQPGAELVKPGASMKLSCKASGYTFTSYWINWVKQRPGQGLEWIGNIFPDTTTTNYNEKFKSKATLTVDTSSSTAYMQLSSLTSDDSAVYYCAREYYDGTYDAMDYWGQGTSVTV VL: SFVMTQTPKFLLVSAGDRVTITCKASQSVNNDVAWYQQKPGQSPKLLIYYASNRYTGVPDRFTGSGYGTDFTFTISTVQAEDLAVYFCQQDYSSPRTFGGGTKLEIK | binding result [2]: no binding (tested: 5 µg/mL); binding result [3]: no binding (tested: 5 µg/mL); binding result [4]: binds |
| no binding (tested: 5 µg/mL) | no binding (tested: 1 µg/mL) | no binding (tested: 1 µg/mL) | – | SC17.42 (antibody, V domains shown, murine mAb) VH: DVKLVESGGGLVRPGGSLKLSCAASGFTFSRYTMSWVRQTPEKRLEWAATINSGGSNTYYPDSVKGRFTISRDNAKNTLFLQMSSLKSEDTAMYYCTNGNHWGQGTTLTVSS VL: ENVLTQSPAIMSASPGEKVTMTCSASSSVNYMYWYQQKSSTSPKLWIYDTSKLTSGVPGRFSGSGSGNSYSLTISNMEAEDVATYYCFQGSGYPLTFGSGTKLEIK | Kd (hSEZ6-ECD-His): 2.7 nM; Kd (rSEZ6-ECD-His): 3 nM |
| – | – | – | – | SC17.72 (antibody, V domains shown, murine mAb) VH: EVQLVESGGGLVKPGGSLKLSCAASGFTFSSYGMSWVRQTPEKRLEWVAAINSNGGSTYYPDTVKGRLTISRDNGKNTLYLQMSSLRSEDTALYYCVRDDGYYVFFAYWGQGTLVTVSA VL: DIQMTQTTSSLSASLGDRVTISCSASQGISNYLNWYQQKPDGTVKLLIYYTSSLHSGVPSKFSGSGSGTDYSLTISNLEPEDIATYYCQQYSKLPYTFGGGTKLEIK | binding result [5]: binds |
| – | – | – | binds | SC17.76 (antibody, V domains shown, murine mAb) VH: EVQLVESGGDLVKPGGSLKLSCVASGFTFSSYGMSWVRQTPDKRLEWVATISSGGTFTYYPDSVKGRFTVSRDNAKNTLYLQMSSLKSEDTAMYYCSRHGWGWGQGTLVTVSA VL: DIVITQDELSNPVTSGESVSISCRSSKSLLYKDGKTYLNWFLQRPGQSPQLLIYLMSTRASGVSDRFSGSGSGTDFTLEISRVKAEDVGVYYCQQLVEYPRTFGGGTKLEIK | – |
| – | – | – | binds | SC17.122 (antibody, V domains shown, murine mAb) VH: EVHLVESGGDLVKPGGSLKLSCAASGFTFSSYGMSWVRQTPDKRLEWVATISSGGTYTYYPDSVKGRFTISRDNAKNTLYLQMSSLKSEDTAMYYCSRHGWGWGQGTLVTVSA VL: DIVITQDDLSNPVTSGESVSISCRSSKSLLYKDGKTYLNWFLQRPGQSPQLLIYLMSTRASGVSDRFSGSGSGTDFTLEISRVKAEDVGVYYCQQLVEYPRTFGGGTKLEIK | – |
